± gives the standard deviation.

This data set in a line: protein stability index of a GFP-peptide fusion (GPS, HEK-293T) (PSI 1-6); higher = more stable.
Setting [1] is: treatment: DMSO, c terminus: a fixed tail appended.
The mark [2] stands for this setting: treatment: MLN4924 1 uM, 8 h, c terminus: a fixed tail appended.
Where [3] appears, read: treatment: DMSO, c terminus: native.
[4] abbreviates: treatment: MLN4924 1 uM, 8 h, c terminus: native.
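Further: 24-mer peptide tiles fused after GFP, lentivirally expressed, FACS-sorted into six equal bins by GFP/DsRed ratio, decoded by Illumina sequencing, PSI is the read-weighted mean bin number.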

RGDLWISWEEGMKVFEELLLDADW [CRY1] had a protein stability index under setting [1] of 2.31 ± 0.41 and a protein stability index under setting [2] of 2.4 ± 0.29. On the same counts, the results for RGKIHAFRGQILGFWEEERPFWEE [CCDC70] are 2.42 ± 0.14 and 2.47 ± 0.24.

Consider RGRMPPTQPTHGQFALTNGDPLNC [NR2F2], for which the protein stability index by setting is: under setting [1], 4.06 ± 0.12; under setting [2], 3.97 ± 0.26.

RISSPQVEEGDSRFLANEVLQENY [WEE1] displayed a protein stability index under setting [1] of 4.83 ± 0.44 and a protein stability index under setting [2] of 4.91 ± 0.13.

As for RKAAKSLIKLGLERFHGVGILGFN [ACSBG2], the protein stability index by setting is: under setting [1], 2.64 ± 0.49; under setting [2], 2.51 ± 0.35. The corresponding values for RKFWWKNVKMIVLICVIVFIIILF [VAMP8] are 3.13 ± 0.32 and 2.98 ± 0.3. In the case of RKRRRNGSKEGNHHSTQPKRNKRN [FAM104B], the protein stability index is 5.22 ± 0.38 under setting [1] and 4.92 ± 0.48 under setting [2]. For the sequence RLALRQRLKCRSFKWYLENVYPEM [GALNT9], the protein stability index worked out at 1.95 ± 0.22 under setting [1] and 2.35 ± 0.18 under setting [2]. The corresponding values for RLCLPALSQMGAQSSGKILLCPLC [TRIM15] are 2.35 ± 0.3 and 2.41 ± 0.21. The corresponding values for RLKLLKDREVDAATSATSHTRSLN [FBF1] are 4.31 ± 0.32 and 4.41 ± 0.16. Consider RLLVGLALATLRVLRGLARPEHPP [TMEM175], for which the protein stability index was found to be 2.02 ± 0.42 under setting [1] and 2.35 ± 0.43 under setting [2]. On the same counts, the results for RLPFLSAFERQQVENRVVEEAKGL [ZBED1] are 4.17 ± 0.14 and 4.2 ± 0.22. The corresponding values for RLRGKLRAEIENLHRTFDPHFLRV [MOG] are 2.48 ± 0.18 and 2.44 ± 0.28. As for RLSVLLNLLPAAGELQESGLALCP [SMG5], the protein stability index by setting is: under setting [1], 2.02 ± 0.39; under setting [2], 2.07 ± 0.18. On the same counts, the results for RLVESLSTQIRALTEQQEQLRGQL [RASAL3] are 2.38 ± 0.21 and 2.34 ± 0.26. Regarding RLWSHRSYKARLPLRLFLIIANTM [SCD], the protein stability index runs as follows: under setting [1], 2.29 ± 0.54; under setting [2], 2.13 ± 0.23. On the same counts, the results for RLYRLKLEELTKLQNNCTSSITRQ [TMEM120A] are 2.62 ± 0.092 and 2.81 ± 0.3.

Take RNGMASEGLNSSLCSPGHERRGTP [PSD2]: the protein stability index under setting [1] is 4.72 ± 0.34 and the protein stability index under setting [2] was 4.61 ± 0.28. On the same counts, the results for RNLARSQSVKMKDKLKIDLLPDGR [TAF7L] are 4.09 ± 0.28 and 4.25 ± 0.2. The corresponding values for RNLSYTCRANRNCPIDQHHRNQCQ [NR2F2] are 3.32 ± 0.1 and 3.36 ± 0.24.

With RNLYAYIQKLTQIETGENVTGMEL [PTPRD], the protein stability index reads like this: under setting [1], 2.41 ± 0.26; under setting [2], 2.29 ± 0.53. The corresponding values for RPIPTPVGSVHVDSGASAITRESH [CSNK1G1] are 4.86 ± 0.33 and 4.9 ± 0.27. On the same counts, the results for RRDYLLLVMEGTDDGRLLEYDTVT [APMAP] are 2.26 ± 0.32 and 2.72 ± 0.13. On the same counts, the results for RRERELQHAALGGTATRQNNWPPL [SCAMP3] are 3.54 ± 0.16 and 3.82 ± 0.21. With RRKREVLVEDMVSQEEAQGLPSSE [ZNF24], the protein stability index is, setting by setting: under setting [1], 5.31 ± 0.2; under setting [2], 5.43 ± 0.15. The corresponding values for RRLFGPVDSEQLRRDCDALMAGCI [CDKN1A] are 2.75 ± 0.26 and 2.74 ± 0.34. On the same counts, the results for RRVHLTEDQWGKGTLTPRMTTDFD [TRIM9] are 3.92 ± 0.13 and 4 ± 0.18. On the same counts, the results for RSRKVSCPLTRSNGDLSRSLSPSP [FCHO1] are 4.04 ± 0.45 and 4.08 ± 0.15. Take RTANPSKTIDLGAAAHYTGDKASP [CLINT1]: the protein stability index runs as follows: under setting [1], 4.99 ± 0.27; under setting [2], 4.93 ± 0.083. RVDPTRVNEFGMSGEDPTAAAPVA [CLPTM1] displayed a protein stability index under setting [1] of 4.98 ± 0.099 and a protein stability index under setting [2] of 5.02 ± 0.2. On the same counts, the results for RVDVDTYLTSQLPPLREIILGPSS [NFE2L1] are 2.67 ± 0.46 and 2.67 ± 0.35. On the same counts, the results for RYFGARAILGEQRPRQRQRVYPKC [TCF25] are 3.84 ± 0.32 and 3.58 ± 0.21. On the same counts, the results for RYQQSKAAALKCQLCEKAPKEATV [TRIM9] are 3.85 ± 0.28 and 4.01 ± 0.14.

Regarding RYTFAPSVSLNKTARPFGAPPPAD [PDLIM7], the protein stability index under setting [1] turned out to be 3.34 ± 0.2 and the protein stability index under setting [2] worked out at 3.55 ± 0.21.

In the case of SADMDESDEDDEEERRRRVFDVPI [FBXO3], the protein stability index turned out to be 5.32 ± 0.18 under setting [1] and 5.35 ± 0.11 under setting [2]. As for SADPARGLPRSRDCRVDLGSEVYR [PDLIM4], the protein stability index reads like this: under setting [1], 3.74 ± 0.23; under setting [2], 3.83 ± 0.09. On the same counts, the results for SAFPFSDKLGELSDKIGSTIDDTI [CLINT1] are 3.67 ± 0.2 and 3.81 ± 0.39. In the case of SAKLAPHYFHSISYKIEEISPSTL [KCNK9], the protein stability index is, setting by setting: under setting [1], 2.41 ± 0.23; under setting [2], 2.31 ± 0.34. In the case of SAPGACEEPTERGNLEVGEPQSEP [FBXO34], the protein stability index came to 5.67 ± 0.27 under setting [1] and 5.7 ± 0.17 under setting [2]. The corresponding values for SCSQNLLITQQIIPVLYCMVFIAG [P2RY14] are 3.03 ± 0.58 and 2.87 ± 0.73. On the same counts, the results for SDGFRDCKKGDPKHGKRKRGRPRK [ELF3] are 5.18 ± 0.35 and 5.22 ± 0.15.

Consider SDQDPRVRTAAIKAMLQLHERGLK [INTS4], for which the protein stability index worked out at 3.67 ± 0.31 under setting [1] and 3.79 ± 0.39 under setting [2]. The corresponding values for SEDRTIRVWLKRDSGQYWPSIYHT [WDFY1] are 2.15 ± 0.19 and 2.25 ± 0.31. On the same counts, the results for SEGKVLTLAALLLNRSESDIRYLL [FEM1B] are 2.43 ± 0.56 and 2.38 ± 0.24. The corresponding values for SEIKNYNFQQPGFTSGTGHFTAMV [GLIPR2] are 2.41 ± 0.58 and 2.77 ± 0.16. In turn, SERPLEDLRLRLDHLGWVARGTGS [RTN2] had a protein stability index under setting [1] of 2.63 ± 0.53 and a protein stability index under setting [2] of 3.2 ± 0.58. Turning to SESEQEFLYKTAGGLIYWIGLTKA [CD207], the protein stability index under setting [2] came out at 2.11 ± 0.59. On to SESGKLVTKMFQKIQDLIDDKDAL [TRIP13], for which the protein stability index is, setting by setting: under setting [1], 3.43 ± 0.17; under setting [2], 3.42 ± 0.2.

SFEAPLTPLIQQRARDSPEPGAGL [PSD2]: the protein stability index under setting [1] was 4.66 ± 0.22 and the protein stability index under setting [2] was found to be 4.68 ± 0.2. On the same counts, the results for SFEDDCSQSLCLNKPTMSFKDYIQ [ETS2] are 3.52 ± 0.15 and 3.67 ± 0.28. Turning to SFIKNSDSFDKFEFCEPAFVVGNC [PCMTD1], the protein stability index was found to be 2.37 ± 0.11 under setting [1] and 2.62 ± 0.22 under setting [2]. In the case of SFQMSEGSEAAVIPLDLGCTQVTQ [FAM189A2], the protein stability index was 4.56 ± 0.17 under setting [1] and 4.43 ± 0.31 under setting [2].

As for SFSLVKLVLRRQLKNKCCPPPCKF [C22orf31], the protein stability index is 2.29 ± 0.47 under setting [1] and 2.35 ± 0.41 under setting [2]. Regarding SFVTGSHVGELIIWDALDWTMQAY [WDR41], the protein stability index was 2.9 ± 0.72 under setting [1] and 3.21 ± 1.5 under setting [2]. For the sequence SGAGHGSGSGSGPGCGSVPGSGSG [SPAG8], the protein stability index is, setting by setting: under setting [1], 5.03 ± 0.17; under setting [2], 4.96 ± 0.4. On the same counts, the results for SGGSSSSFRAGSKGLSGGFGSRSL [KRT71] are 3.32 ± 0.18 and 3.14 ± 0.13.

Turning to SGKRLSGVSSVDSAFSSRGSLSLS [RIPK4], the protein stability index under setting [1] was 3.47 ± 0.62 and the protein stability index under setting [2] amounted to 3.57 ± 0.41. For SGLFNHRGIHNIQKRYHCKECGKV [ZSCAN9], the protein stability index under setting [1] was 3.08 ± 0.41 and the protein stability index under setting [2] was found to be 3.13 ± 0.35. Sequence SGPRQLLTLYNPTGTALRFRVLCT [MOSPD3] registered a protein stability index under setting [1] of 2.15 ± 0.48 and a protein stability index under setting [2] of 2.16 ± 0.27. As for SGSGNGSSTLNPSTSSSTQGDPAF [NOL4L], the protein stability index is, setting by setting: under setting [1], 5.04 ± 0.34; under setting [2], 5.07 ± 0.17.

SHPACPLEFAYYFRPGHLLANACL [ZSWIM9]: the protein stability index runs as follows: under setting [1], 2.81 ± 0.54; under setting [2], 2.52 ± 0.56. Consider SIEGTIPFSKPVKVYIMPKPARR [INTS4], for which the protein stability index amounted to 2.42 ± 0.33 under setting [3] and 2.56 ± 0.45 under setting [4]. On to SIYDNVPGSILYSSSGDLADLENE [DLC1], for which the protein stability index runs as follows: under setting [1], 4.843 ± 0.034; under setting [2], 4.75 ± 0.12. On the same counts, the results for SKARTKSLLGDDVFSTMAGLEEAD [FBF1] are 4.87 ± 0.29 and 5.05 ± 0.2. The corresponding values for SLENTLTESEARYSSQLSQVQSLI [KRT33B] are 3.05 ± 0.23 and 3.11 ± 0.46.

SLGPALSTGPRGLCAMPQTGDAF [VENTX]: the protein stability index runs as follows: under setting [3], 2.44 ± 0.12; under setting [4], 2.3 ± 0.11. In turn, SLHHTSECTQMDHLGCMHYTVRAP [ALDH8A1] yielded a protein stability index under setting [1] of 3.04 ± 0.13 and a protein stability index under setting [2] of 3.06 ± 0.25. On the same counts, the results for SLLLTPQENESLFTFLGKKCVTMS [WASL] are 2.45 ± 0.15 and 2.5 ± 0.4. On the same counts, the results for SLLTNWPSVPPTIKEEENSEEELA [MYBL2] are 5.41 ± 0.26 and 5.28 ± 0.28. On the same counts, the results for SLRIALSEHLKQRREVAKTVFCLV [EDNRA] are 1.93 ± 0.34 and 2.26 ± 0.3. On to SLSNGQGSRVLHVVQTLYPFSSVT [NCK2], for which the protein stability index under setting [1] was 2.01 ± 0.18 and the protein stability index under setting [2] came out at 2.14 ± 0.21. In turn, SLTAAETLALQGTQGQEKMMMMGP [ZNF232] returned a protein stability index under setting [1] of 4.01 ± 0.18 and a protein stability index under setting [2] of 4.14 ± 0.2.

For the origin of these results see the supplement of paper PMC10567573.
